# T1: human IL-2 receptor βγc heterodimer (hIL-2Rβγc), soluble (human, UniProt P14784 27-240; P31785 23-254, biotin on the C-terminal biotin acceptor peptide)
# T1 construct: also called HsIL-2Rβγc; hIL-2Rβνc
# T1 sequence 1: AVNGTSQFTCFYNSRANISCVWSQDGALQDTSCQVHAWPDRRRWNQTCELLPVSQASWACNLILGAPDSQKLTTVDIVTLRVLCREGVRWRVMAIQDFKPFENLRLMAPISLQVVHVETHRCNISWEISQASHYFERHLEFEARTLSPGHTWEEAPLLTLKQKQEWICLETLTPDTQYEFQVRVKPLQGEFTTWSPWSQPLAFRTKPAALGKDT
# T1 sequence 2: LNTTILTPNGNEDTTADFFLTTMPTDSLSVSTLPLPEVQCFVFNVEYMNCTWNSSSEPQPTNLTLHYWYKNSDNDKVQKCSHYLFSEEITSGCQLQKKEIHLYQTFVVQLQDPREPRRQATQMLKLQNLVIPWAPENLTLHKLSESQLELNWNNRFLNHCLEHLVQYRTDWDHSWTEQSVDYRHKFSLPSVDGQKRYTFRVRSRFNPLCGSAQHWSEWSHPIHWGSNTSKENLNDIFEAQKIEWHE
# T2: mouse IL-2 receptor βγc heterodimer (mIL-2Rβγc), soluble (mouse, UniProt P16297 27-240; P34902 23-263, biotin on the C-terminal biotin acceptor peptide)
# T2 construct: extracellular domain; also called MmIL-2Rβγc; mIL-2Rβνc
# T2 sequence 1: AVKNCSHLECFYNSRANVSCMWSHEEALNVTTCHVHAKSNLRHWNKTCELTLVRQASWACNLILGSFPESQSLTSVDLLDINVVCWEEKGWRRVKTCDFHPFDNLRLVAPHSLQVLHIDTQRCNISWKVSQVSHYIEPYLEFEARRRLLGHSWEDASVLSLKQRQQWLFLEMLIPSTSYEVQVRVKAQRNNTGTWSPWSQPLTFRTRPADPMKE
# T2 sequence 2: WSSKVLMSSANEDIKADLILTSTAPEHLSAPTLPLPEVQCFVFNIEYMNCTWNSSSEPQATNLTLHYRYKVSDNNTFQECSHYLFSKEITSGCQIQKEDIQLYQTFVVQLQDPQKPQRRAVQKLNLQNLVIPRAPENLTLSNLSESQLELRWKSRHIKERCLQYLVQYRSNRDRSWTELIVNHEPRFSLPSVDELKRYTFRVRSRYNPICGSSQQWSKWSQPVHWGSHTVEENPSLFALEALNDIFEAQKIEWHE
# T3: IL-2Rβγc (species not stated)
# T3 chain 1: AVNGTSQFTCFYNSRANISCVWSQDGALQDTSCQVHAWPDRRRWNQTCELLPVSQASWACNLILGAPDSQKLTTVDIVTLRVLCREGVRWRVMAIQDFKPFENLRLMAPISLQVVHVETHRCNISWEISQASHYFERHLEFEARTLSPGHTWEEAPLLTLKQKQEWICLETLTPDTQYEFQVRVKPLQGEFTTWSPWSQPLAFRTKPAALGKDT
# T3 chain 2: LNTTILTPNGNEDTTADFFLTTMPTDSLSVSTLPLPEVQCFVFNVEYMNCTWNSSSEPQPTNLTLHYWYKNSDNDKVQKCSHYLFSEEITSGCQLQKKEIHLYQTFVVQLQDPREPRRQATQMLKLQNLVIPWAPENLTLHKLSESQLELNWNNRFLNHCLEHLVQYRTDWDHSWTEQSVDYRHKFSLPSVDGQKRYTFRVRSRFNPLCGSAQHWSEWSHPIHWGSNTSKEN
# T4: human IL-2 receptor β subunit (hIL-2Rβ) (human, UniProt P14784 27-240, biotin on the C-terminal biotin acceptor peptide)
# T4 construct: Biotinylated and immobilised on streptavidin; also called HsIL-2Rβ; human IL-2Rβ
# T4 sequence: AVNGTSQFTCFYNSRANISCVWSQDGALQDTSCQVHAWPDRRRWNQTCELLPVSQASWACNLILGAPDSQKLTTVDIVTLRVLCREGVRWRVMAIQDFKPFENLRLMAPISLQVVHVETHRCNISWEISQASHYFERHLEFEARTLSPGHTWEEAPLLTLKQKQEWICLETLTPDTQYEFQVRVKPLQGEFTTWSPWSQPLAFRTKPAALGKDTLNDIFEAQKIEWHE
# T5: human IL-2Rβγc on human cells (YT-1 NK cells) (human, UniProt P14784 27-551; P31785 23-369)
# T5 sequence (looked up) 1: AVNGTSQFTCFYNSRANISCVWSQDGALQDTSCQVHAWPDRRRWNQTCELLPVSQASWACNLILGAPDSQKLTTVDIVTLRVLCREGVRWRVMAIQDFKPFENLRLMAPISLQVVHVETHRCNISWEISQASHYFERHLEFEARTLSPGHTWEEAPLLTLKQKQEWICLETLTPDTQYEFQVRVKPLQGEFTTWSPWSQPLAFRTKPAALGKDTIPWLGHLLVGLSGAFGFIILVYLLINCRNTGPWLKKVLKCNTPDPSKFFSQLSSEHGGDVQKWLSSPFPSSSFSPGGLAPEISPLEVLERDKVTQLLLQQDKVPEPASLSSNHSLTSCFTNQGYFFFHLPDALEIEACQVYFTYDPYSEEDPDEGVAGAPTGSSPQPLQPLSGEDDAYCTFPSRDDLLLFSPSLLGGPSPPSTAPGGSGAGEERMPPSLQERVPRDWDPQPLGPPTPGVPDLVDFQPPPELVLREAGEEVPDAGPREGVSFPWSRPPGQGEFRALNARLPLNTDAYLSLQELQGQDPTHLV
# T5 sequence (looked up) 2: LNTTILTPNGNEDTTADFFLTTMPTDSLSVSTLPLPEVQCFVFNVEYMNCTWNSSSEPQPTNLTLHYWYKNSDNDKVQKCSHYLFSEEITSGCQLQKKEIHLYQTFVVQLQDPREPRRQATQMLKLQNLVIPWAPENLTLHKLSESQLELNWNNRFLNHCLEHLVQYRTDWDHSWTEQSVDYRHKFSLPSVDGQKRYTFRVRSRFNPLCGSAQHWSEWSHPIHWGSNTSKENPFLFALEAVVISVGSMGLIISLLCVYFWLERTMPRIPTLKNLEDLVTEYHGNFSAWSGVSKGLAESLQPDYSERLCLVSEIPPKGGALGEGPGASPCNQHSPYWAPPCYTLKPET
# T6: fluorescently labeled chimeric hIL-2Rβγc (human, UniProt P14784 27-240; P31785 23-254)
# T6 construct: How beta and gamma are joined and labeled is not described; also called fluorescently-tagged beta-gamma chimeric IL-2 receptor; chimeric ILRβγc
# T6 sequence (looked up) 1: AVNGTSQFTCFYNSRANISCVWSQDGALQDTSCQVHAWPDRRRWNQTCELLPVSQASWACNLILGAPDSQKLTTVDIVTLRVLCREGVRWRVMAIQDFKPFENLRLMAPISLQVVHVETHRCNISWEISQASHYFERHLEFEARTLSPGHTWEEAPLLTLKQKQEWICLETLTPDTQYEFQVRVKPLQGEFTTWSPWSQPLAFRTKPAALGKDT
# T6 sequence (looked up) 2: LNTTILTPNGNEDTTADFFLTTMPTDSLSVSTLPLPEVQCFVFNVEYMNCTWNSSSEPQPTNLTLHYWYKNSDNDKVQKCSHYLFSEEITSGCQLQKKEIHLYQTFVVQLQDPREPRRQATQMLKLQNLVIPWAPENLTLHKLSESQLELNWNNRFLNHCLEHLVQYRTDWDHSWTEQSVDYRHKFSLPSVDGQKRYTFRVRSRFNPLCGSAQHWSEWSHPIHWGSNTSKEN
# Key:
# [1] = molecular target: T1, human IL-2 receptor βγc heterodimer …; assay: affinity maturation by yeast display for human and mouse IL-2Rβνc
# Experimental: (§1) The vector was linearized by 100 fold overdigestion by NdeI and XhoI (New England Biolabs) and then purified by gel extraction (Qiagen). The genes included 50 bases of overlap with the vector on both the 5′ and 3′ ends such that homologous recombination would place the genes in frame between the AGA2 gene and the myc tag on the vector. Yeast were grown in C-Trp-Ura media prior to induction in SGCAA media as previously described. […] After approximately 30 minutes, cells were washed again in chilled buffer, and then incubated on ice for 5 minutes with FITC-conjugated anti-c-Myc antibody (1 uL per 3×10⁶ cells) and streptavidin-phycoerythrin (1 uL per 100 uL volume of yeast). Yeast were then washed and counted by flow cytometry (Accuri C6) or sorted by FACS (Sony SH800).
# [2] = molecular target: T2, mouse IL-2 receptor βγc heterodimer …; assay: as above
# Experimental: as §1
# [3] = molecular target: T3, IL-2Rβγc (species not stated); assay: biolayer interferometry
# [4] = molecular target: T1, human IL-2 receptor βγc heterodimer …; assay: SPR, equilibrium titration; IL-2Rγ on streptavidin chip, saturating IL-2Rβ in solution
# Experimental: (§2) Less than 100 response units (RU) of each ligand was immobilized to minimize mass transfer effects. […] Surface regeneration for all interactions was conducted using 15 s exposure to 1 M MgCl2 in 10 mM sodium acetate pH 5.5. SPR experiments were carried out in HBS-P+ buffer (GE Healthcare) supplemented with 0.2% bovine serum albumin (BSA) at 25° C. and all binding studies were performed at a flow rate of […] to prevent analyte rebinding. Data was visualized and processed using the Biacore T100 evaluation software version 2.0 (GE Healthcare). Equilibrium titration curve fitting and equilibrium binding dissociation (KD) value determination was implemented using GraphPad Prism assuming all binding interactions to be first order. Biolayer interferometry: binding data were collected in a Octet RED96 (ForteBio, Menlo Park, Calif.) and processed using the instrument's integrated software using a 1:1 binding model. […] Analyte proteins were diluted from concentrated stocks into binding buffer. After baseline measurement in binding buffer alone, the binding kinetics were monitored by dipping the biosensors in wells containing 100 nM of the designed protein (association) and then dipping the sensors back into baseline wells (dissociation).
# [5] = molecular target: T4, human IL-2 receptor β subunit (hIL-2Rβ); assay: SPR, equilibrium titration; biotinylated IL-2Rβ on streptavidin chip
# Experimental: as §2
# [6] = molecular target: T5, human IL-2Rβγc on human cells (YT-1 NK …); assay: cell-based or functional assay
# [7] = molecular target: T6, fluorescently labeled chimeric hIL-2Rβγc; assay: yeast display, flow cytometry
Binder,binding result [1],binding result [2],further results
G2_neo2_40_1F_seq27_S24 (designed binder) TNKKAQLHAEFALYDALMLLNLSSESNERLNDIITWLQSIIFTGTYDPDMVKEAVKLADEIEDEMRKRKIDTEDYVVNLRYILQELA,binds,binds,–
G2_neo2_40_1F_seq27_S18 (designed binder) TNKEAQLHAEFALYDALMLLNLSSESNERLNRIITWLQSIIFYETYDPDMVKEAVKLADEIEDEMRKRKIDTEDYVVNLRLILQELA,binds,binds,–
G2_neo2_40_1F_seq27_S22 (designed binder) TKKDAELLAEFALYDALMLLNLSSESNERLNEIITWLQSIIFYGTYDPDMVKEAVKLADEIEDEMRKRGIDTEDYVSNLRLILQELA,binds,binds,–
"Neoleukin-2/15 internal disulfide variant (disulfide between residues 38 and 75) (designed binder, disulfide bond between the cysteines at residues 38 and 75, also called internal disulfide-staple) PKKKIQLHAEHALYDALMILNIVKTNSPPAEEKLEDYCFNFELILEEIARLFESGDQKDEAEKAKRMKEWMKRICTTASEDEQEEMANAIITILQSWIFS",–,–,Kd [3]: ~1.3 nM
G2_neo2_40_1F_seq29_S8 (designed binder) EDYYSNLKLILEELAREMERNGLSDKAEEWRQWKKIVERIRQIRSNNSDLNEAKELLNRLITYIQSQIFEVLEGVGETDQEKKEESWKKWELHLEHALLDVLMLLND,binds,binds,–
G2_neo2_40_1F_seq29_S6 (designed binder) EDYYSNLKLILEELAREMERNGLSDKAEEWRQWKKIVERIRQIRSNNSDLNEAKELLNRLITYIQSQIFEVLHGVGETDQEKKEESWKKWDLLLEHALLDVLMLLND,binds,binds,–
"G1_neo2_43 (designed binder, Single-disulfide stapled variation; In yeast display between Aga2 and a myc tag; also called G1_ne02_43) STKKIQLQLEHALLDVQMALNRSPEPNESLNRMITWLQSCISTGKCDLDNAQEMAKEAEKIRKEMEKRGIDVRDLISNIIVILLELS",–,–,"Kd [4]: 533 nM; Kd [5]: 2860 nM; EC50 (CD25-) pSTAT5p, human NK (YT, CD25-) cells [6]: 0.21 nM"
G1_neo2_44 (designed binder) STKKIQLQLEHALLDVQMALNRSPEPNESLNRMITWLQSWISTGKIDLDNAQEMCKEAEKIRKEMEKRGIDVRDLISNICVILLELS,–,–,binding result [7]: no binding (tested: 2 nM)
"Neoleukin-2/15 terminal disulfide variant (CNSN and NFQC added at the termini) (designed binder, disulfide bond between the N-terminal and the C-terminal cysteine, also called external disulfide-staple) CNSNKKKIQLHAEHALYDALMILNIVKTNSPPAEEKLEDYAFNFELILEEIARLFESGDQKDEAEKAKRMKEWMKRIKTTASEDEQEEMANAIITILQSWIFNFQC",–,–,Kd [3]: ~1.8 nM
"G1_neo2_40 (designed binder, also called G1_ne02_40) STKKLQLQAEHALLDAQMMLNRSPEPNEKLNRIITTMQSWISTGKIDLDGAKELAKEVEELRQEAEKRGIDVRDLASNLKVILLELA",–,–,"Kd [4]: 260 nM; Kd [5]: 1460 nM; EC50 (CD25-) pSTAT5p, human NK (YT, CD25-) cells [6]: 0.14 nM"
"G1_neo2_41 (designed binder, Single-disulfide stapled variation; In yeast display between Aga2 and a myc tag; also called G1_ne02_41) STKKLQLQAEHALLDAQMMLNRSPEPNEKLNRIITTMQSCISTGKCDLDGAKELAKEVEELRQEAEKRGIDVRDLASNLKVILLELA",–,–,"Kd [4]: 187 nM; Kd [5]: 721 nM; EC50 (CD25-) pSTAT5p, human NK (YT, CD25-) cells [6]: 70 pM"
G1_neo2_35 (designed binder) STKKWQLQAEHALLDWQMALNKSPEPNENLNRAITAAQSWISTGKIDCDKAEDIRRNSDQARREAEKRGIDVRDLISNAQVILLEAC,–,–,binding result [7]: no binding (tested: 2 nM)

# Continued, in another order:
binding result [1],binding result [2],Binder,further results
binds,binds,G2_neo2_40_1F_seq29_S7 (designed binder) EDYYSNLKVILEELAREMERNGLSDKAEEWRQWKKIVERIRQIRSNNSDLNEAKELLNELITYIQSQIFEVIEREGETDQEKKEESWKKWELHLEHALLDVLMLLND,–
binds,binds,G2_neo2_40_1F_seq36_S12 (designed binder) PKKKIQLLAEHALFDLLMILNIVKTNSQNAEEKLEDYAYNAGVILEEIARLFESGDQKDEAEKAKRMKEWMKRIKDTASEDEQEEMANEIITILQSWNFS,–

# — patent US20200339648A1 (University of Washington, published 2020)
